# According to the DeepSol protein solubility set:
# Experiment: soluble on expression in E. coli; label from the status in PepcDB or PDB records
row,Sequence,soluble on expression in E. coli
1,MASMAAELRPSDGGSSLHMLDSLLMMGLSSGGGVGGGGSSQSQILDSAGAAELAALLLPQHSNDPLHLMSTGDAALGLAGPMAAAEHHQHHPHHQHHSVPATAGFPSQTPPPPLFSNATAGAAPATRVRAAGSCGSGGVAGGTTSHSSEDGVFHSADPHHHHQQHLQQPQPQQQQQQQQQPQHQQQQQQQQQQQPQQPQFHHHQPQQHQAQQAVAATAPAAAADHLFLPPAAAGAAGQQQAGWGAATGAHLFHSDAPNRPNGPKTPTNRNGYAMKPPPPAAAAAVMSGHAMAASGVVAGRGGGGGGCDAEEDELTFAAAAAAEVSSDDEVMGGRGGAVMGRAAVGGFRTPAPAPASAGAAVNVAAAAPAAPAGTWVPKGKPAVEVSAWAPAPAAPVAAAAAAAVAVSPTVAAFAAAPVVEAVALVRSQQRQEQEHQLVQVAAAEQQDQQQAKRPVRSSRRRAQESQQAAAEAQQAAQQAAAAQQQQQHTGSGNIVGDKQGKPQGGLQQGRPVATQPSPPPPAVATAAAAAAATAPVATAPVATVATAATADTMPQRLTAVQQHEAYPAVVRGTLDVRKACLPRFPLVAREQAEAELQSVATAALQQAAAAPGASAAVTAAAAAAAAAATAAGEGKAGEGKAATARRGGRGAAEAEAAAALPAVGASGNPGLDEAMGAYVRVAALYGDEAAAAVAECESLMADFDNKLQLGNLATTFAAAASPTAAASGRARGGARSGGVGGGGTKRVASGANASGANSSGMSGGGGGDSAGAEAAAGDEMEWAPGATSVDTATGGADDEDGEEEEGQQPGGAAAAAAVAAAGGEASQLAASIAATYGSQLVQVAASLAQRPKVGKLPPAATQLLKGWWDDNFVWPYPSEEDKKQLGEAAALNNTQINNWFINQRKRHWHKHFPNRRPPSTREEAERLLRAAGAI,not soluble
2,MASNVSLTGLAHDLKQRAENHPPIRIGLIGCGEMGTDLLSSIAHMDGITVAAVATRTPSRIFDAARLAYGEEGHVREVENASALTRTIEKGLIAATNDIDLVLRHEQIDIIVDATGYPEAGAEIGFKALENNKNLVMMNVEADVTIGAYLKHEAEKQGLIYTLGAGDEPTSCMELIEFVSALGHKI,not soluble
3,MASSAVSLQSISMTTLNNLSCNQQFHRSSLLGSSKSFQNLGISSNGSDFSYPSSFTAKKNLTASRALSQNGNIENPRPSKVQELSVYEINELDRHSPKILKNAFSLMFGLGDLVPFTNKLYTGDLKKRVGITAGLCVVIEHVPEKKGERFEATYSFYFGDYGHLSVQGPYLTYEDSFLAITGGAGIFEGAYGQVKLQQLVYPTKLFYTFYLKGLANDLPLELTGTPVPPSKDIEPAPEAKALEPSGVISNYTN,soluble
4,MASSLNEDPEGSRITYVKGDLFACPKTDSLAHCISEDCRMGAGIAVLFKKKFGGVQELLNQQKKSGEVAVLKRDGRYIYYLITKKRASHKPTYENLQKSLEAMKSHCLKNGVTDLSMPRIGCGLDRLQWENVSAMIEEVFEATDIKITVYTL,soluble
5,MASYAELFDIGEDFAAFVGHGLATEQGAVARFRQKLESNGLPSALTERLQRIERRYRLLVAGEMWCPDCQINLAALDFAQRLQPNIELAIISKGRAEDDLRQRLALERIAIPLVLVLDEEFNLLGRFVERPQAVLDGGPQALAAYKAGDYLEHAIGDVLAIIEGAAR,soluble
6,MASYSDIVDSVRKCQFSPLYLLAGEEPFYIDELATLLETHVVPVDEWDFNRVILYGDKTSVADIANEARRFPMMGRRQLIVVREAQLVDNIDLLEAHYGTFPDTTILVIAYKKKPDKRKAFYTKAEKFGKVFVSETIPDYKMPDFILSAAAGKKLSVSPEVAYMLADYLGNDLEKLMNELDKLILITQDSRGVVTSEIVEQHIGVSKSFNNFELLRAIVNRETGKTFRIAHYFARNEKEHPIQATLPVLFNYFSNLMIVCYLPQKKPDAIMKALSIRNFQVRDYMTGLKMYSTRKVFDIIHEIRMTDARSKGVDTTGTFAGSGDLLRELLHFIFH,not soluble
7,MASYSQFLTKAQEDELRSIANAIVTPGKGILAADESTGSMDKRLNSIGLENTEENRRKYRQLLFTAGADLNKYISGVIMFHETFYQKTDDGKPFTALLQEQGIIPGIKVDKGVVPMAGTIGEGTTQGLDDLNARCAQYKKDGAQFAKWRCVHKISSTTPSVTALKEIASNLARYASICQQNGLVPIVEPEILPDGEHCLARGQKITETVLSYVYHALNEHHVFLEGTLLKPNMVTSGQSFTGEKPSNADIGLATVTALQRGVPSAVPGVVFLSGGQSEEDATLNLNAINQVSGKKPWALTFSYGRALQASCLAKWAGKDENIAAAQEVLLHRAQVNSLASVGKYTGDASADAAASQSLFVANHSY,soluble
8,MATAADSVYSIESPKAAKSLMLDVVHAGKRLVAVGDRGHILYSDDQGQTWVQAKVPTRQLLTAVYFVDDKRGWAVGHDAQVLASSDGGATWTRQFQDLKREAPLLDVWFKDTQTGYAVGAYGALLETSDGGQHWEDVSDRLDNEDQFHLNAIAQVKDSGLFIVGEQGSMFRSADDGQTWERLEGPYEGSLFGVIGTGQPATLLVYGLRGNLYRSTDFGSTWEQVELEHHHHHH,soluble
9,MATAATTASRSTTAGTSSTMGTPATTSAASRTTTTGTTTTMGQLIT,not soluble
10,MATADVKSTVPHMDMDRGGAFDFSNCIRNQAMCKMGGKAPKLTSTGTTIVAVAFKGGLVMGADSRATAGNIIADKHCEKVHKLTESIYACGAGTAADLDQVTKMLSGNLRLLELNTGRKARVITALRQAKQHLFNYQGYIGAYLLIGGVDPTGPHLYMCSANGTTMAFPFTAQGSGSYAAITILERDFKVDMTKDEAEKLVQRALEAGMHGDNASGNSLNLVIIEPSETVFKGPIVPEFCKRPEPNDLVYKFQAGATKVLKHKTYKYDVVESMDITH,not soluble
11,MATGQDRVVALVDMDCFFVQVEQRQNPHLRNKPCAVVQYKSWKGGGIIAVSYEARAFGVTRSMWADDAKKLCPDLLLAQVRESRGKANLTKYREASVEVMEIMSRFAVIERASIDEAYVDLTSAVQERLQKLQGQPISADLLPSTYIEGLPQGPTTAEETVQKEGMRKQGLFQWLDSLQIDNLTSPDLQLTVGAVIVEEMRAAIERETGFQCSAGISHNKVLAKLACGLNKPNRQTLVSHGSVPQLFSQMPIRKIRSLGGKLGASVIEILGIEYMGELTQFTESQLQSHFGEKNGSWLYAMCRGIEHDPVKPRQLPKTIGCSKNFPGKTALATREQVQWWLLQLAQELEERLTKDRNDNDRVATQLVVSIRVQGDKRLSSLRRCCALTRYDAHKMSHDAFTVIKNCNTSGIQTEWSPPLTMLFLCATKFSASAPSSSTDITSFLSSDPSSLPKVPVTSSEAKTQGSGPAVTATKKATTSLESFFQKAAERQKVKEASLSSLTAPTQAPMSNSPSKPSLPFQTSQSTGTEPFFKQKSLLLKQKQLNNSSVSSPQQNPWSNCKALPNSLPTEYPGCVPVCEGVSKLEESSKATPAEMDLAHNSQSMHASSASKSVLEVTQKATPNPSLLAAEDQVPCEKCGSLVPVWDMPEHMDYHFALELQKSFLQPHSSNPQVVSAVSHQGKRNPKSPLACTNKRPRPEGMQTLESFFKPLTH,soluble
12,MATIGLDRLYYAKITENENGEETYATPVPLAKAITAELSVELAEATLYADDGAAEVVKEFQSGTLTLGVADIGVDAAEVLTGATLDDNKVLISTSEDGGAPVAIGFRAKKANGKYRYFWLYRVKFGIPATNLQTKGDSITFSTPTIEGTVMRRNKPDGLEHHHHHH,soluble
13,MATKKCINGHQYDSSIYGDNCPFCPSSHSTRVLDDDTTTGKTQVLGGNMNAETDTIDLGKSGQNNPGGATVIRHVNPTGGTGMASDNRRLVGLLVSYDQNPMGEVYKIYEGRNVIGRAATSDIPIPGDSNMSSQHLLILYREAEGIFWAADQNSSNGTYINGTFVGDRVQLYTNDVIVLGATKMIFLAIPQ,not soluble
14,MATPASGALLQQMNLASQSLNYELSFISINKQGVESLRYRHARLDNRPLAQLLQMDGPRREVVQRGNEISYFEPGLEPFTLNGDYIVDSLPSLIYTDFKRLSPYYDFISVGRTRIADRLCEVIRVVARDGTRYSYIVWMDTESKLPMRVDLLDRDGETLEQFRVIAFNVNQDISSSMQTLAKANLPPLLSVPVGEKAKFSWTPTWLPQGFSEVSSSRRPLPTMDNMPIESRLYSDGLFSFSVNVNRATPSSTDQMLRTGRRTVSTSVRDNAEITIVGELPPQTAKRIAENIKFGAAQHHHHHH,soluble
15,MATSAEVSQRVLAYLVEQLGVDVSFLRHNDRDRRATRLVAEWPPRLNIPDPDPLRLIYFADADPVFALCEHAKEPLVFRPEPATEDYQRLIEEARGVPVTSAAAVPLVSGEITTGLLGFIKFGDRKWHEAELNALMTIATLFAQVQARVAAEARLRYLADHDDLEHHHHHH,not soluble
16,MATTLPVQRHPRSLFPEFSELFAAFPSFAGLRPTFDTRLMRLEDEMKEGRYEVRAELPGVDPDKDVDIMVRDGQLTIKAERTEQKDFDGRSEFAYGSFVRTVSLPVGADEDDIKATYDKGILTVSVAVSEGKPTEKHIQIRSTN,soluble
17,MATTSAQTSPTEFGAGLPEAEDHSESAEPQSVEAEVIDERYADVWEKIQHARTIDVHDDAEVRKQRNFFDDKQKFMTQVTQRAEPFLYYIVSQLEARNMPLELALLPIVESGYNPLAQANGPAGLWQMIPATGRNFGLTINSAYDGRKDALASTDAVLDYLQHLYNTLGNDWINAVAGYNSGELVIKAAIDRNKAKGKPTDFWSLNIPARQVQTVPKWLAFIQIIREPSHYNLKVMPIANRPFLERLPAPNGVEISQIANAAGLTKAEFKTYNPGYRQSVIPSKGKYQIALPIENIGHYQENQHKLYAQKRYDSQTYIVKSGDSLGTIAAKFDLSVKELKQANNLTSDRLKIGQELTLLTPMAANDNEPEPVKTKANTDKSSTKANASSTKATSSKSTDKPVAKAKTYKVKSGDSLDKIARKSKVKLADLMKWNQLNAKSIIKPGQELKISELEHHHHHH,not soluble
18,MATTVQLSDQSLRQLETLAIHTAHLIQPHGLVVVLQEPDLTISQISANCTGILGRSPEDLLGRTLGEVFDSFQIDPIQSRLTAGQISSLNPSKLWARVMGDDFVIFDGVFHRNSDGLLVCELEPAYTSDNLPFLGFYHMANAALNRLRQQANLRDFYDVIVEEVRRMTGFDRVMLYRFDENNHGDVIAEDKRDDMEPYLGLHYPESDIPQPARRLFIHNPIRVIPDVYGVAVPLTPAVNPSTNRAVDLTESILRSAYHCHLTYLKNMGVGASLTISLIKDGHLWGLIACHHQTPKVIPFELRKACEFFGRVVFSNISAQEDTETFDYRVQLAEHEAVLLDKMTTAADFVEGLTNHPDRLLGLTGSQGAAICFGEKLILVGETPDEKAVQYLLQWLENREVQDVFFTSSLSQIYPDAVNFKSVASGLLAIPIARHNFLLWFRPEVLQTVNWGGDPNHAYEATQEDGKIELHPRQSFDLWKEIVRLQSLPWQSVEIQSALALKKAIVNLILRQAEEHHHHHH,soluble
19,MATYYSNDFRAGLKIMLDGEPYAVEASEFVKPGKGQAFARVKLRRLLTGTRVEKTFKSTDSAEGADVVDMNLTYLYNDGEFWHFMNNETFEQLSADAKAIGDNAKWLLDQAECIVTLWNGQPISVTPPNFVELEIVDTDPGLKGDTAGTGGKPATLSTGAVVKVPLFVQIGEVIKVDTRSGEYVSRVK,soluble
